Measured values taken from US20220002397A1 (Hoffmann-La Roche, published 2022).

T1: VEGF-121-His (inhouse production) (human, UniProt P15692 207-395)
T1 construct: also called hVEGF-A121; VEGF-A121; not shown: His tag
T1 sequence: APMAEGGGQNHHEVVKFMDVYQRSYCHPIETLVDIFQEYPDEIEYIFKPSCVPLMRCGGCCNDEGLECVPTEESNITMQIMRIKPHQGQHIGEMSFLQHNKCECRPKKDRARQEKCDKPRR

B1: VEGF-P1AD8674 Fab (Fab, V domains shown)
VH: EVQLVESGGGLVQPGGSLRLSCAASGFTFTNYAMTWVRQAPGKGLEWVSSIGNGGGIYTYYADSVKGRFTISRNNAENTLYLQMNSLRAEDTAVYYCAKGDNLFDSWGPGTLVTVSS
VL: DIQMTQSPASLSASVGDRVTITCRASQSIYSSLNWYQQKPGKAPKLLIYASTLQSGVPSRFSGSASGTDFTLTISSLQPEDVATYYCQQYQNFPRTFGQGTKLEIKR
notes: Variant of VEGF-0089 with D72N, S74A, K75E (Kabat) in H-FR3
B2: VEGF-0089 Fab fragment (Fab, V domains shown)
VH: EVQLVESGGGLVQPGGSLRLSCAASGFTFTNYAMTWVRQAPGKGLEWVSSIGNGGGIYTYYADSVKGRFTISRDNSKNTLYLQMNSLRAEDTAVYYCAKGDNLFDSWGPGTLVTVSS
VL: DIQMTQSPASLSASVGDRVTITCRASQSIYSSLNWYQQKPGKAPKLLIYASTLQSGVPSRFSGSASGTDFTLTISSLQPEDVATYYCQQYQNFPRTFGQGTKLEIKR
notes: Parent antibody; also called antibody VEGF-0089
B3: VEGF-0112 Fab (Fab, V domains shown)
VH: EVQLVESGGGLVQPGGSLRLSCAASGFTFTNYAMTWVRQAPGKGLEWVSSIGSGGGIYTYYADSVKGRFTISRDNSKNTLYLQMNSLRAEDTAVYYCAKGDNLFDSWGPGTLVTVSS
VL: DIQMTQSPASLSASVGDRVTITCRASQSIYSSLNWYQQKPGKAPKLLIYASTLQSGVPSRFSGSASGTDFTLTISSLQPEDVATYYCQQYQNFPRTFGQGTKLEIKR
notes: Variant of VEGF-0089 with N52aS (Kabat) in H-CDR2

Tests used:
[1] = target: T1, VEGF-121-His (inhouse production); assay: inhibition ELISA: antibody pre-incubated with 0.34 nM VEGF-121-His, binding to coated biotinylated VEGF-R1 detected
Experimental: 384 well streptavidin plates (Nunc/Microcoat #11974998001) were coated with 0.25 μg/mlbiotinylated VEGF-R1 or […] biotinylated VEGF-R2 (inhouse production, each 25 μl/well in DPBS (1×) (PAN, #PO4-36500)). Plates were incubated for 1 h at room temperature. […] This pre-incubation step was carried out in 384 well PP plates (Weidmann medical technology, #23490-101) in 1×OSEP buffer (bidest water, 10×, Roche, #11 666 789 001+0.5% Bovine Serum Albumin Fraction V, fatty acid free, Roche, #10 735 086 001+0.05% Tween 20). Plates were incubated for 1 h at room temperature. After washing VEGF-R1/VEGF-R2 coated streptavidin plates 3 times with 90 μl/well PBST-buffer (bidest water, 10×PBS Roche #11666789001+0.1% Tween 20), 25 μl of samples from the VEGF-antibody pre-incubation plate were transferred to coated strepavidin plates which were subsequently incubated for 1 h at room temperature. After washing 3 times with 90 μl/well PBST-buffer, 25 μl/well detection antibody (anti His POD, Bethyl, #A190-114P, 1:12000) in 1×OSEP was added. After incubation for 1 h at room temperature plates were washed 3 times with 90 μl PBST-buffer. 25 μl TMB (Roche, #11 835 033 001) was added to all wells simultaneously. After 10 min incubation at room temperature, signals were detected at 370 nm/492 nm on a Tecan Safire 2 Reader. […]

[2] = target: T1, VEGF-121-His (inhouse production); assay: SPR, hVEGF-A121 captured by anti-His antibody, Fab as analyte, 37 C
Experimental: (§1) An anti-His capturing antibody (GE Healthcare 28995056) was immobilized to a Series S Sensor Chip C1 (GE Healthcare 29104990) using standard amine coupling chemistry resulting in a surface densitiy of 500-1000 resonance units (RU). As running and dilution buffer, HBS-P+(10 mM HEPES, 150 mM NaCl pH 7.4, 0.05% Surfactant P20) was used, the measurement temperature was set to 25° C. and 37° C., respectively. hVEGF-A121 was captured to the surface with resulting capture levels ranging from 5 to 35 RU. Dilution series of anti-VEGF antibodies (0.37-30 nM) were injected for 120 s, dissociation was monitored for at least 600 s at a flow rate of 30 μl/min. The surface was regenerated by injecting 10 mM Glycine pH 1.5 for 60 s. Bulk refractive index differences were corrected by subtracting blank injections and by subtracting the response obtained from the control flow cell without captured hVEGF-A121. Rate constants were calculated using the Langmuir 1:1 binding model within the Biacore Evaluation software.
(§2) The affinity of the antibodies was determined by SPR using the same methods as described in Example 1.

[3] = target: T1, VEGF-121-His (inhouse production); assay: SPR, hVEGF-A121 captured by anti-His antibody, Fab as analyte, 25 C; 25 C; Table 3 (later example)
Experimental: as §1, §2

[4] = target: T1, VEGF-121-His (inhouse production); assay: SPR (Biacore), hVEGF-A121 captured by anti-His antibody on C1 chip, Fab as analyte, 1:1 Langmuir model, 25 C; 25 C; Example 1
Experimental: VEGF-binding of antibody VEGF-0089 Fab fragment was assessed by surface plasmon resonance (SPR) as described below.
as §1

[5] = target: T1, VEGF-121-His (inhouse production); assay: SPR, hVEGF-A121 captured by anti-His antibody, Fab as analyte, 25 C
Experimental: as §1, §2

Binder | binding result [1] | Kd [2] | Kd [3] | Kd [4] | Kd [5]
B1 | binds | – | – | – | –
B2 | – | 0.11 nM | 0.143 nM | 0.134 nM | –
B3 | – | 0.085 nM | – | – | 0.074 nM
